From the supplement of paper PMC7877785
± gives the uncertainty stated by the source.

Test: self-splicing fitness, log relative to wild type (ln ratio); higher = more splicing; Tetrahymena group I intron in knt gene, E. coli kanamycin selection, DiMSum; sequences stand for … in CUCUCU…GGAGGGAAAAGUUAUCAGGCAUGCACCUGGUAGCUAGUCUUUAAACCAAUAGAUUGCAUCGGUUUAAAAGGCAAGACCGUCAAAUUGCGGGAAAGGGGUCAACAGCCGUUCAGUACCAAGUCUCAGGGGAAACUUUGAGAUGGCCUUGCAAAGGGUAUGGUAAUAAGCUGACGGACAUGGUCCUAACCACGCAGCCAAGUCCUAAGUCAACAGAUCUUCUGUUGAUAUGGAUGCAGUUCACAGACUAAAUGUCGGUCGGGGAAGAUGUAUUCUUCUCAUAAGAUAUAGUCGGACCUCUCCUUAAUGGGAGCUAGCGGAUGAAGUGAUGCAACACUGGAGCCGCUGGGAACUAAUUUGUAUGCGAAAGUAUAUUGAUUAGUUUUGGAGUACUCGUGGUCG
Summary of the method: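 Fitness was computed with DiMSum as the error-weighted combination of replicate fold changes, kanamycin versus none, each normalised to wild type. The library randomised all eight intron nucleotides of the P1ex region, with the intron placed in the knt kanamycin-resistance gene on pET-22b(+) in E. coli BL21(DE3). Six replicate transformations were grown overnight at 37°C or 30°C on LB agar with or without 25 μg/mL kanamycin, plus 100 μg/mL carbenicillin, 50 μM IPTG and 0.2% rhamnose. Pooled colonies were amplicon-sequenced on an Illumina HiSeq 2500.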

Row | Sequence | self-splicing fitness (ln) (37 °C) | self-splicing fitness (ln) (30 °C)
1 | CUGUAGCAAUAUUACGAUUU | -2.62 ± 0.36 | –
2 | CUGUAGCAAUAUUACGCACA | -1.19 ± 0.16 | -2.05 ± 0.13
3 | CUGUAGCAAUAUUACGCGAG | -2.13 ± 0.25 | -3.06 ± 0.29
4 | CUGUAGCAAUAUUACGCGUA | -2.89 ± 0.25 | -3.3 ± 0.3
5 | CUGUAGCAAUAUUACGCUUG | -2.02 ± 0.16 | -2.62 ± 0.14
6 | CUGUAGCAAUAUUACGGCCC | -0.731 ± 0.38 | –
7 | CUGUAGCAAUAUUACGGCCU | -3.02 ± 0.34 | –
8 | CUGUAGCAAUAUUACGGCUA | -1.51 ± 0.39 | –
9 | CUGUAGCAAUAUUACGGGGG | -2.68 ± 0.31 | -4.4 ± 0.37
10 | CUGUAGCAAUAUUACGUAUC | -1.57 ± 0.38 | -4.3 ± 0.47
11 | CUGUAGCAAUAUUACGUAUG | -0.224 ± 0.16 | -0.387 ± 0.11
12 | CUGUAGCAAUAUUACGUCGG | -1.87 ± 0.18 | -3.47 ± 0.2
13 | CUGUAGCAAUAUUACGUGCA | -2.5 ± 0.16 | -2.56 ± 0.18
14 | CUGUAGCAAUAUUACGUUGG | -1.46 ± 0.11 | -3.56 ± 0.13
15 | CUGUAGCAAUAUUACGUUUC | -2.99 ± 0.32 | -3.58 ± 0.19
16 | CUUAAGCAAUAUUACGAAAA | – | -1.9 ± 0.26
17 | CUUAAGCAAUAUUACGACGA | -2.61 ± 0.23 | -3.58 ± 0.25
18 | CUUAAGCAAUAUUACGAGAG | -2.48 ± 0.45 | -4.39 ± 0.42
19 | CUUAAGCAAUAUUACGAGCG | -0.156 ± 0.15 | -0.691 ± 0.1
20 | CUUAAGCAAUAUUACGAGUA | -1.94 ± 0.2 | -3.63 ± 0.24
21 | CUUAAGCAAUAUUACGAUAG | -0.283 ± 0.15 | -2.01 ± 0.15

Row | Sequence | self-splicing fitness (ln) (37 °C) | self-splicing fitness (ln) (30 °C)
22 | CUUAAGCAAUAUUACGAUGU | -0.792 ± 0.21 | -3.88 ± 0.37
23 | CUUAAGCAAUAUUACGCAAG | -2.58 ± 0.34 | -3.07 ± 0.41
24 | CUUAAGCAAUAUUACGCCAA | -2.43 ± 0.33 | -2.46 ± 0.42
25 | CUUAAGCAAUAUUACGCUGC | -1 ± 0.35 | –
26 | CUUAAGCAAUAUUACGGAAA | -2.1 ± 0.28 | -3.23 ± 0.38
27 | CUUAAGCAAUAUUACGGACU | -1.62 ± 0.17 | -3.14 ± 0.15
28 | CUUAAGCAAUAUUACGGAUG | -0.0373 ± 0.077 | -0.76 ± 0.056
29 | CUUAAGCAAUAUUACGUAUA | -3.19 ± 0.29 | -2.9 ± 0.23
30 | CUUAAGCAAUAUUACGUUCA | -3.79 ± 0.47 | -2.9 ± 0.27
31 | CUUAAGCAAUAUUACGUUGC | -2.03 ± 0.35 | –
32 | CUUAAGCAAUAUUACGUUUG | -2.73 ± 0.3 | -3.89 ± 0.2
33 | CUUAAGCAAUAUUACGUUUU | -2.07 ± 0.21 | -4.2 ± 0.25
34 | CUUCAGCAAUAUUACGAACU | -1.75 ± 0.27 | -3.9 ± 0.37
35 | CUUCAGCAAUAUUACGACGU | -2.12 ± 0.21 | -3.67 ± 0.21
36 | CUUCAGCAAUAUUACGACUA | – | -2.12 ± 0.39
37 | CUUCAGCAAUAUUACGAUGA | -1.71 ± 0.25 | -4.12 ± 0.42
38 | CUUCAGCAAUAUUACGCAGA | -2.18 ± 0.22 | -3.44 ± 0.37
39 | CUUCAGCAAUAUUACGCAGG | -2.07 ± 0.26 | -4.17 ± 0.34
40 | CUUCAGCAAUAUUACGCGCG | -0.367 ± 0.087 | -0.941 ± 0.056
41 | CUUCAGCAAUAUUACGGCCU | -1.66 ± 0.38 | –
42 | CUUCAGCAAUAUUACGGGAU | -1.34 ± 0.095 | -2.14 ± 0.084

Row | Sequence | self-splicing fitness (ln) (37 °C) | self-splicing fitness (ln) (30 °C)
43 | CUUCAGCAAUAUUACGGUCU | -2.21 ± 0.2 | -2.93 ± 0.15
44 | CUUCAGCAAUAUUACGGUGA | -2.67 ± 0.18 | -3.2 ± 0.21
45 | CUUCAGCAAUAUUACGUAAA | -2.12 ± 0.19 | -3.05 ± 0.15
46 | CUUCAGCAAUAUUACGUAAC | -2.27 ± 0.45 | -2.65 ± 0.32
47 | CUUCAGCAAUAUUACGUCCA | -2.63 ± 0.36 | -2.19 ± 0.29
48 | CUUCAGCAAUAUUACGUGAA | -2.72 ± 0.2 | -2.71 ± 0.12
49 | CUUCAGCAAUAUUACGUGGC | -2.08 ± 0.43 | -2.61 ± 0.23
50 | CUUCAGCAAUAUUACGUGUC | -2.3 ± 0.12 | -3.03 ± 0.13
51 | CUUCAGCAAUAUUACGUUGG | -4.08 ± 0.46 | -3.67 ± 0.23
52 | CUUGAGCAAUAUUACGAACC | -1.54 ± 0.44 | –
53 | CUUGAGCAAUAUUACGAAUA | – | -3.26 ± 0.48
54 | CUUGAGCAAUAUUACGAGCU | – | -1.6 ± 0.46
55 | CUUGAGCAAUAUUACGAGGU | -2.42 ± 0.22 | -2.39 ± 0.19
56 | CUUGAGCAAUAUUACGAUCA | -2.89 ± 0.48 | –
57 | CUUGAGCAAUAUUACGAUGG | -2.13 ± 0.23 | -2.94 ± 0.2
58 | CUUGAGCAAUAUUACGCGGG | -0.302 ± 0.18 | -3.92 ± 0.3
59 | CUUGAGCAAUAUUACGCGUG | -0.143 ± 0.11 | -2.84 ± 0.18
60 | CUUGAGCAAUAUUACGCUCG | -2.65 ± 0.44 | -1.7 ± 0.17
61 | CUUGAGCAAUAUUACGCUGU | -2.06 ± 0.32 | -2.28 ± 0.19
62 | CUUGAGCAAUAUUACGGAGU | -1.97 ± 0.28 | -1.09 ± 0.13
63 | CUUGAGCAAUAUUACGGAUC | -1.45 ± 0.31 | –

Row | Sequence | self-splicing fitness (ln) (37 °C) | self-splicing fitness (ln) (30 °C)
64 | CUUGAGCAAUAUUACGGGCC | -2.81 ± 0.34 | –
65 | CUUGAGCAAUAUUACGGUGC | -2.19 ± 0.42 | -3.34 ± 0.35
66 | CUUGAGCAAUAUUACGGUUA | -3.21 ± 0.3 | -2.25 ± 0.15
67 | CUUGAGCAAUAUUACGUAAC | – | -1.67 ± 0.38
68 | CUUGAGCAAUAUUACGUGAG | -1.28 ± 0.12 | -2.89 ± 0.12
69 | CUUGAGCAAUAUUACGUGCU | -3.89 ± 0.42 | -1.93 ± 0.11
70 | CUUGAGCAAUAUUACGUUAU | -2.77 ± 0.36 | -3.45 ± 0.27
71 | CUUGAGCAAUAUUACGUUGU | -2.94 ± 0.14 | -3.73 ± 0.14
72 | CUUUAGCAAUAUUACGAAAC | -1.65 ± 0.32 | –
73 | CUUUAGCAAUAUUACGAGCG | 0.0581 ± 0.12 | -1.16 ± 0.073
74 | CUUUAGCAAUAUUACGAGGG | -2.26 ± 0.27 | -3.57 ± 0.21
75 | CUUUAGCAAUAUUACGAGUG | -0.267 ± 0.077 | -0.24 ± 0.06
76 | CUUUAGCAAUAUUACGCACC | – | -2.92 ± 0.43
77 | CUUUAGCAAUAUUACGCAGU | -2.34 ± 0.49 | -1.8 ± 0.3
78 | CUUUAGCAAUAUUACGCUAU | -1.68 ± 0.23 | -3.66 ± 0.31
79 | CUUUAGCAAUAUUACGGAGU | -2.46 ± 0.48 | –
80 | CUUUAGCAAUAUUACGGGCA | -2.67 ± 0.21 | -3.41 ± 0.26
81 | CUUUAGCAAUAUUACGGGUG | 0.108 ± 0.091 | -0.377 ± 0.072
